In general, stoichiometry N refers to the number of molecules, sites or subunits per partner or assembly.

The text below walks through data of paper PMC10847046.

In this test the target is M66/StcE (Yersinia entomophaga (endogenous in the ΔLC derivative of MH96)). Description: cryo-EM structure.

M66/StcE (enzyme) showed a stoichiometry N of 4.
